{"source": "paper PMC5026484", "about": "(eLife, 2016)", "proteins": {"B1": {"name": "Selenomethionine derivative of Mical-3 residues 1841-1990 (domain or fragment, human, UniProt Q7RTP6 1841-1990, looked up)", "chain": "KQEELKRLHRAQIIQRQLQQVEERQRRLEERGVAVEKALRGEAGMGKKDDPKLMQEWFKLVQEKNAMVRYESELMIFARELELEDRQSRLQQELRERMAVEDHLKTEEELSEEKQILNEMLEVVEQRDSLVALLEEQRLREREEDKDLEA", "modifications": "selenomethionine in place of methionine", "notes": "Mical-3, human, whole predicted bMERB domain, residues 1841-1990 (isoform 1); printed elsewhere as 1841-1992; Two copies in the asymmetric unit of the crystal; also called SeMet Mical-3; seleno-L-methionine labelled Mical-3_(1841–1990)"}}, "molecular_target": "the molecule itself", "assay": "crystal structure; X-ray; sitting/hanging-drop vapour diffusion, 20°C; data from beamline X10SA, SLS"}
{"protein": "B1", "values": [{"measurement": "binding result", "result": "binds"}]}
